Assay results: PMC6921018, “The Loop of the TPR1 Subdomain of Phi29 DNA Polymerase Plays a Pivotal Role in Primer-Terminus Stabilization at the Polymerization Active Site” (Biomolecules, 2019)

Columns and labels:
[1] = target: T1, Bacteriophage Phi29 terminal protein (TP) (bacteriophage Phi29, UniProt P03681 1-266); assay: cell-based or functional assay
T1 sequence (looked up): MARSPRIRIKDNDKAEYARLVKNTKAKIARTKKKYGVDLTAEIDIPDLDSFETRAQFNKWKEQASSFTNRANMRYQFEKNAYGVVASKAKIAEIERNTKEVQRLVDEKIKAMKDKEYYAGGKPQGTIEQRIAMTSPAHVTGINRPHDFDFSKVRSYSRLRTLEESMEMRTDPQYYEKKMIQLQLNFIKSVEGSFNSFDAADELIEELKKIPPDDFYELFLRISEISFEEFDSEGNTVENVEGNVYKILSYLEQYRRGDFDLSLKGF

[2] = target: T1, Bacteriophage Phi29 terminal protein …; assay: cell-based or functional assay; remark: listed apart in the source

B1: Bacteriophage Phi29 DNA polymerase, wild-type (enzyme)
chain: MKHMPRKMYSCDFETTTKVEDCRVWAYGYMNIEDHSEYKIGNSLDEFMAWVLKVQADLYFHNLKFDGAFIINWLERNGFKWSADGLPNTYNTIISRMGQWYMIDICLGYKGKRKIHTVIYDSLKKLPFPVKKIAKDFKLTVLKGDIDYHKERPVGYKITPEEYAYIKNDIQIIAEALLIQFKQGLDRMTAGSDSLKGFKDIITTKKFKKVFPTLSLGLDKEVRYAYRGGFTWLNDRFKEKEIGEGMVFDVNSLYPAQMYSRLLPYGEPIVFEGKYVWDEDYPLHIQHIRCEFELKEGYIPTIQIKRSRFYKGNEYLKSSGGEIADLWLSNVDLELMKEHYDLYNVEYISGLKFKATTGLFKDFIDKWTYIKTTSEGAIKQLAKLMLNSLYGKFASNPDVTGKVPYLKENGALGFRLGEEETKDPVYTPMGVFITAWARYTTITAAQACYDRIIYCDTDSIHLTGTEIPDVIKDIVDPKKLGYWAHESTFKRAKYLRQKTYIQDIYMKEVDGKLVEGSPDDYTDIKFSVKCAGMTDKIKKEVTFENFKVGFSRKMKPKPVQVPGGVVLVDDTFTIK
TP-dAMP formation with a limiting amount of TP (15 nM) in competition with the catalytically inactive DNA polymerase mutant D249E, at a D249E/wild-type ratio of 1 (interference assay) [1]: 2 fold

B2: Phi29 DNA polymerase mutant F309A (enzyme, bacteriophage Phi29)
chain: MKHMPRKMYSCDFETTTKVEDCRVWAYGYMNIEDHSEYKIGNSLDEFMAWVLKVQADLYFHNLKFDGAFIINWLERNGFKWSADGLPNTYNTIISRMGQWYMIDICLGYKGKRKIHTVIYDSLKKLPFPVKKIAKDFKLTVLKGDIDYHKERPVGYKITPEEYAYIKNDIQIIAEALLIQFKQGLDRMTAGSDSLKGFKDIITTKKFKKVFPTLSLGLDKEVRYAYRGGFTWLNDRFKEKEIGEGMVFDVNSLYPAQMYSRLLPYGEPIVFEGKYVWDEDYPLHIQHIRCEFELKEGYIPTIQIKRSRAYKGNEYLKSSGGEIADLWLSNVDLELMKEHYDLYNVEYISGLKFKATTGLFKDFIDKWTYIKTTSEGAIKQLAKLMLNSLYGKFASNPDVTGKVPYLKENGALGFRLGEEETKDPVYTPMGVFITAWARYTTITAAQACYDRIIYCDTDSIHLTGTEIPDVIKDIVDPKKLGYWAHESTFKRAKYLRQKTYIQDIYMKEVDGKLVEGSPDDYTDIKFSVKCAGMTDKIKKEVTFENFKVGFSRKMKPKPVQVPGGVVLVDDTFTIK
TP-dAMP formation with a limiting amount of TP in competition with the DNA polymerase mutant D249E, relative to that without competitor (interference assay) [1]: < 50%
protein-primed initiation (TP-dAMP formation) on Phi29 TP-DNA template, activity with respect to the wild-type enzyme (100) [2]: 25 % of wild-type

B3: Phi29 DNA polymerase mutant R306A (enzyme, bacteriophage Phi29)
chain: MKHMPRKMYSCDFETTTKVEDCRVWAYGYMNIEDHSEYKIGNSLDEFMAWVLKVQADLYFHNLKFDGAFIINWLERNGFKWSADGLPNTYNTIISRMGQWYMIDICLGYKGKRKIHTVIYDSLKKLPFPVKKIAKDFKLTVLKGDIDYHKERPVGYKITPEEYAYIKNDIQIIAEALLIQFKQGLDRMTAGSDSLKGFKDIITTKKFKKVFPTLSLGLDKEVRYAYRGGFTWLNDRFKEKEIGEGMVFDVNSLYPAQMYSRLLPYGEPIVFEGKYVWDEDYPLHIQHIRCEFELKEGYIPTIQIKASRFYKGNEYLKSSGGEIADLWLSNVDLELMKEHYDLYNVEYISGLKFKATTGLFKDFIDKWTYIKTTSEGAIKQLAKLMLNSLYGKFASNPDVTGKVPYLKENGALGFRLGEEETKDPVYTPMGVFITAWARYTTITAAQACYDRIIYCDTDSIHLTGTEIPDVIKDIVDPKKLGYWAHESTFKRAKYLRQKTYIQDIYMKEVDGKLVEGSPDDYTDIKFSVKCAGMTDKIKKEVTFENFKVGFSRKMKPKPVQVPGGVVLVDDTFTIK
TP-dAMP formation with a limiting amount of TP in competition with the DNA polymerase mutant D249E, relative to that without competitor (interference assay) [1]: < 50%
protein-primed initiation (TP-dAMP formation) on Phi29 TP-DNA template, activity with respect to the wild-type enzyme (100) [2]: 8 % of wild-type

B4: Phi29 DNA polymerase mutant Y310A (enzyme, bacteriophage Phi29)
chain: MKHMPRKMYSCDFETTTKVEDCRVWAYGYMNIEDHSEYKIGNSLDEFMAWVLKVQADLYFHNLKFDGAFIINWLERNGFKWSADGLPNTYNTIISRMGQWYMIDICLGYKGKRKIHTVIYDSLKKLPFPVKKIAKDFKLTVLKGDIDYHKERPVGYKITPEEYAYIKNDIQIIAEALLIQFKQGLDRMTAGSDSLKGFKDIITTKKFKKVFPTLSLGLDKEVRYAYRGGFTWLNDRFKEKEIGEGMVFDVNSLYPAQMYSRLLPYGEPIVFEGKYVWDEDYPLHIQHIRCEFELKEGYIPTIQIKRSRFAKGNEYLKSSGGEIADLWLSNVDLELMKEHYDLYNVEYISGLKFKATTGLFKDFIDKWTYIKTTSEGAIKQLAKLMLNSLYGKFASNPDVTGKVPYLKENGALGFRLGEEETKDPVYTPMGVFITAWARYTTITAAQACYDRIIYCDTDSIHLTGTEIPDVIKDIVDPKKLGYWAHESTFKRAKYLRQKTYIQDIYMKEVDGKLVEGSPDDYTDIKFSVKCAGMTDKIKKEVTFENFKVGFSRKMKPKPVQVPGGVVLVDDTFTIK
TP-dAMP formation with a limiting amount of TP in competition with the DNA polymerase mutant D249E, relative to that without competitor (interference assay) [1]: < 50%
protein-primed initiation (TP-dAMP formation) on Phi29 TP-DNA template, activity with respect to the wild-type enzyme (100) [2]: 30 % of wild-type

B5: Phi29 DNA polymerase deletion mutant Δ6 lacking residues Arg306-Lys311 (enzyme, bacteriophage Phi29)
chain: MKHMPRKMYSCDFETTTKVEDCRVWAYGYMNIEDHSEYKIGNSLDEFMAWVLKVQADLYFHNLKFDGAFIINWLERNGFKWSADGLPNTYNTIISRMGQWYMIDICLGYKGKRKIHTVIYDSLKKLPFPVKKIAKDFKLTVLKGDIDYHKERPVGYKITPEEYAYIKNDIQIIAEALLIQFKQGLDRMTAGSDSLKGFKDIITTKKFKKVFPTLSLGLDKEVRYAYRGGFTWLNDRFKEKEIGEGMVFDVNSLYPAQMYSRLLPYGEPIVFEGKYVWDEDYPLHIQHIRCEFELKEGYIPTIQIKGNEYLKSSGGEIADLWLSNVDLELMKEHYDLYNVEYISGLKFKATTGLFKDFIDKWTYIKTTSEGAIKQLAKLMLNSLYGKFASNPDVTGKVPYLKENGALGFRLGEEETKDPVYTPMGVFITAWARYTTITAAQACYDRIIYCDTDSIHLTGTEIPDVIKDIVDPKKLGYWAHESTFKRAKYLRQKTYIQDIYMKEVDGKLVEGSPDDYTDIKFSVKCAGMTDKIKKEVTFENFKVGFSRKMKPKPVQVPGGVVLVDDTFTIK
TP-dAMP formation with a limiting amount of TP in competition with the DNA polymerase mutant D249E, relative to that without competitor (interference assay) [1]: < 50%
protein-primed initiation (TP-dAMP formation) on Phi29 TP-DNA template, activity with respect to the wild-type enzyme (100) [2]: 3 % of wild-type
